The values below come from paper PMC6561022, “β-Lactam Antibiotics Enhance the Pathogenicity of Methicillin-Resistant Staphylococcus aureus via SarA-Controlled Lipoprotein-Like Cluster Expression”.

For the data set, the target named is T1, SarA-his (Staphylococcus aureus N315, UniProt Q7A732 1-124).
T1 sequence: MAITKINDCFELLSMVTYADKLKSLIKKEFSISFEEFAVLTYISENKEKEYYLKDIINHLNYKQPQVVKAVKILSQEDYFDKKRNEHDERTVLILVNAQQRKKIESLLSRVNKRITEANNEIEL
Description: EMSA; SarA-his 0-240 pM (so in the source), 10 pmol DNA; 10 mM HEPES pH 7.6, 1 mM EDTA, 2 mM DTT, 50 mM KCl, 0.05% Triton X-100, 5% glycerol; 20 min room temperature; […]. The settings on record: protein: recombinant; tags: N-terminal His6 (pET28a); chain copies: 2; label: none (GelRed stain); blunt. Background: A gel shift assay detects complexes by their altered migration in electrophoresis.

B1: lpl-PM (GC-rich SarA box mutant) (dsDNA)
DNA 1: CCACGAGGGGGGGGGCGGGGGGGTTCCTCTAGTATTATTAATATTGGAATTTGAAC
DNA 2: GTTCAAATTCCAATATTAATAATACTAGAGGAACCCCCCCGCCCCCCCCCTCGTGG
In the case of B1, the binding result was “no binding”.

B2: lpl-P (lpl cluster promoter, SarA box) (dsDNA)
DNA 1: CCACGAGGATTTAATCATAAAATTTCCTCTAGTATTATTAATATTGGAATTTGAAC
DNA 2: GTTCAAATTCCAATATTAATAATACTAGAGGAAATTTTATGATTAAATCCTCGTGG
In the case of B2, the binding result is given as “binds”.
